Consider one molecule from publication PMC3260422 (Structure(London, England:1993), 2011).

In general, Kd refers to the equilibrium constant for the complex coming apart. A higher Kd goes with weaker binding.

The target in the experiment is T1, human Colony Stimulating Factor-1 (hCSF-1), residues 1-149 (human).
T1 sequence (P09603 whole entry, looked up): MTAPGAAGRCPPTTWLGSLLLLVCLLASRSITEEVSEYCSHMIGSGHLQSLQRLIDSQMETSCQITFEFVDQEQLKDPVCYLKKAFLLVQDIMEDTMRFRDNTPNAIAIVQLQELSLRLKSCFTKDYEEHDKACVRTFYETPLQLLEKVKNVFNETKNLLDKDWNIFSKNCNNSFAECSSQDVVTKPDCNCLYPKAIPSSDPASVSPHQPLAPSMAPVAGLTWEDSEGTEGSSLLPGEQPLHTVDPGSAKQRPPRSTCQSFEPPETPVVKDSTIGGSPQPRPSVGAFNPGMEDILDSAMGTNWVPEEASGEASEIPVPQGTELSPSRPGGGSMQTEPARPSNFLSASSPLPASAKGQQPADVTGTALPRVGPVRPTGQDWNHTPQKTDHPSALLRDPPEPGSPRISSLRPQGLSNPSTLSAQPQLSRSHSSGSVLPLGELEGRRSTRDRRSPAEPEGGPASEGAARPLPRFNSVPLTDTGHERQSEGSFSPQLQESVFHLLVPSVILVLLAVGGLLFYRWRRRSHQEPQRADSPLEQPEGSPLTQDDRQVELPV
As to the kind of experiment: ITC. On the technique in general: Isothermal titration calorimetry measures the heat released or taken up as one component is titrated into another.

B1: human CSF-1 receptor, first three extracellular domains (hCSF-1R_(D1-D3)) (domain or fragment)
chain: IPVIEPSVPELVVKPGATVTLRCVGNGSVEWDGPPSPHWTLYSDGSSSILSTNNATFQNTGTYRCTEPGDPLGGSAAIHLYVKDPARPWNVLAQEVVVFEDQDALLPCLLTDPVLEAGVSLVRVRGRPLMRHTNYSFSPWHGFTIHRAKFIQSQDYQCSALMGGRKVMSISIRLKVQKVIPGPPALTLVPAELVRIRGEAAQIVCSASSVDVNFDVFLQHNNTKLAIPQQSDFHNNRYQKVLTLNLDQVDFQHAGNYSCVASNVQGKHSTSMFFRVVES
modifications: N-linked glycosylation (produced with kifunensine)
In turn, B1 registered a Kd of 213 nM.
